In patent US6518061:

Experiments:
[1] = target: IL-13 receptor (IL-13R) on human tumor cells (human); assay: cell-based or functional assay
[2] = target: IL-13 receptor (IL-13R) on human tumor cells (human); assay: displacement of [^125I]-IL-13 from HL-RCC cells
[3] = target: IL-13 receptor (IL-13R) on human tumor cells (human); assay: ^125I-hIL-13 displacement by unlabeled hIL-13 on T-98G glioma cells, LIGAND/Scatchard analysis
[4] = target: IL-13 receptor (IL-13R) on human tumor cells (human); assay: ^125I-hIL-13 displacement by unlabeled hIL-13 on U-373 MG glioma cells, LIGAND/Scatchard analysis
[5] = target: IL-13 receptor (IL-13R) on human tumor cells (human); assay: ^125I-hIL-13 displacement by unlabeled hIL-13 on U-251 MG glioma cells, LIGAND/Scatchard analysis
[6] = target: IL-13 receptor (IL-13R) on human tumor cells (human); assay: ^125I-IL-13 displacement by unlabeled IL-13 on PM-RCC cells, LIGAND/Scatchard analysis
[7] = target: IL-13 receptor (IL-13R) on human tumor cells (human); assay: displacement of ^125I-IL-13 from WS-RCC and HL-RCC cells by excess unlabeled IL-13
[8] = target: IL-13 receptor (IL-13R) on human tumor cells (human); assay: ^125I-IL-13 displacement by unlabeled IL-13 on WS-RCC cells, LIGAND/Scatchard analysis
[9] = target: IL-13 receptor (IL-13R) on human tumor cells (human); assay: ^125I-hIL-13 displacement by unlabeled hIL-13 on SNB-19 glioma cells, LIGAND/Scatchard analysis
[10] = target: IL-13 receptor (IL-13R) on human tumor cells (human); assay: ^125I-IL-13 displacement by unlabeled IL-13 on HL-RCC cells, LIGAND/Scatchard analysis
[11] = target: IL-13 receptor (IL-13R) on human tumor cells (human); assay: ^125I-hIL-13 displacement by unlabeled hIL-13 on A-172 glioma cells, LIGAND/Scatchard analysis
[12] = target: IL-13 receptor (IL-13R) on human tumor cells (human); assay: radioligand (0.64 nM) binding to PM-RCC cells, 4 C, 2 h
[13] = target: IL-13 receptor (IL-13R) on human tumor cells (human); assay: ^125I-IL-13 displacement by unlabeled IL-13 on MA-RCC cells, LIGAND/Scatchard analysis

Sequence of IL-13 receptor (IL-13R) on human tumor cells (human) (Q14627 whole entry): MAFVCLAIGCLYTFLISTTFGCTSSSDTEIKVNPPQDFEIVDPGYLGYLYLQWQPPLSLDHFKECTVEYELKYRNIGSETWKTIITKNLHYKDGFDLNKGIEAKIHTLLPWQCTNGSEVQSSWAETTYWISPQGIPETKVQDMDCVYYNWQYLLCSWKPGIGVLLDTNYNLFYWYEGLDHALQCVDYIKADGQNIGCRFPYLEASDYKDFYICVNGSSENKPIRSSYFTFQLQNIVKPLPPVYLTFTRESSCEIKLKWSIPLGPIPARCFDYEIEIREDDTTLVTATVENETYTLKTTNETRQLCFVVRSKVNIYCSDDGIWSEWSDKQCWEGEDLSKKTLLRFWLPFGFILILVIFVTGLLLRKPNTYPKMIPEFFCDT

Row | IC50 [2] [nM] | Kd [3] [nM] | Kd [4] [nM] | Kd [5] [nM] | Kd [6] [nM] | % displacement of total binding [7] [%] | Kd [8] [nM] | Kd [9] [nM] | Kd [10] [nM] | Kd [11] [nM] | cpm specifically bound [12] [cpm] | Kd [13] [nM] | Substance | IC50, cytotoxicity on several glioma cell lines [1] [ng/mL]
1 | – | – | – | – | – | – | – | – | – | – | – | – | hIL-13-PE4E (from UniProt P35225 33-146; P11439 26-638) | < 0.1
2 | 20 | 1 | 1.8 | 2.1 | 0.394 | 85 | 0.247 | 1.4 | 3.1 | 1.6 | 182000 | 0.128 | recombinant human interleukin 13 (IL-13) (from UniProt P35225 33-146) (ligand) | –
